This is an account of results in article PMC2728405.

The assay has as its target microtubules preformed from purified tubulin (taxol-stabilized) (UniProt Q6B856). In words: co-sedimentation.

purified recombinant Flag-tagged Dp260 came in with a stoichiometry N (α-β tubulin heterodimers per Dp260) of 1.4.
